From patent publication US6960440 (TRUSTES OF COLUMBIA UNIVERSITY IN THE CITY OF NEW YORK, dated 2005)

Target: the molecule itself
Test: SDS-PAGE and Western blot of NADE overexpressed in 293T cells, wild type against Cys-to-Ser mutants

B1: Myc-tagged mouse NADE expressed in 293T cells (pcDNA3.1(-)Myc-HisA/NADE) (other, not shown: small tags and cut ends)
chain: MANVHQENEEMEQPLQNGEEDRPVGGGEGHQPAGNNNNNNHNHNHNHHRRGQARRLAPNFRWAIPNRQMNDGLGGDGDDMEMFMEEMREIRRKLRELQLRNCLRILMGELSNHHDHHDEFCLMP
notes: It runs as 22 kDa and 44 kDa bands; also called Myc-tagged NADE; wild type NADE
B1: binds.
